According to patent publication US20250034271A1 (EUCURE BEIJING BIOPHARMA, published 2025):

The binders below were run against T1, Histidine-tagged human CD40 protein (hCD40-His) (human, UniProt P25942 21-193) (assay: SPR, Biacore T200; antibody on Protein A chip, hCD40-His injected; 1:1 fit).
T1 construct: not shown: histidine tag
Method: The binding affinity of the anti-hCD40 antibodies were measured using surface plasmon resonance (SPR) using Biacore (Biacore, INC, Piscataway N.J.) T200 biosensor equipped with pre-immobilized Protein A sensor chips.
Anti-hCD40 antibodies were collected by transfecting CHO-S cells and then purified. The antibodies (1 μg/mL) were injected into Biacore T200 biosensor at 10 μL/min for about 24-33 seconds to achieve to a desired protein density (about 44-57 response units (RU)). […] Dissociation was monitored for 300 seconds. The chip was regenerated after the last injection of each titration with Glycine (pH 2.0, 30 μL/min for 12 seconds).

T1 sequence (P25942 21-193 limits assumed): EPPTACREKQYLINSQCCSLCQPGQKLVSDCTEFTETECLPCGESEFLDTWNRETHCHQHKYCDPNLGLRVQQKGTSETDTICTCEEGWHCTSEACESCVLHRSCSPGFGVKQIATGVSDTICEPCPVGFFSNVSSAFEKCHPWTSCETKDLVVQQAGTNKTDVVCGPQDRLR

| Kd | koff | kon | Binder |
| --- | --- | --- | --- |
| 194 nM | 0.0292 s⁻¹ | 150000 M⁻¹ s⁻¹ | 7F10-mHvKv-IgG1-N297A (antibody, V domains shown, Chimeric; human IgG1 constant regions with N297A mutation (EU numbering) in the Fc region) VH: EVKLVESGGGLVQPGGSLKLSCATSGFTFSDYYMYWVRQTPEKRLEWVAYISYGGDSTFYPDTVRGRFTISRDNAKNALYLQMSRLKSEDTAVYYCARPAPSAHSYYLDYWGQGTTLTVSS VL: DIQMTQTTSSLSASLGDRVTISCRASQDISNYLNWYQQKPDGTVKLLIYYTSRLHSGLPSRFSGSGSGTDYSLTISNLEQEDIATYYCQQGKTLPFTFASGTKLEIK |
| 182 nM | 0.0313 s⁻¹ | 172000 M⁻¹ s⁻¹ | 7F10-H2K3-IgG4 (antibody, V domains shown, Humanized) VH: EVQLVESGGGLVQPGGSLRLSCATSGFTFSDYYMYWVRQAPGKRLEWVAYISYGGDSTFYPDTVRGRFTISRDNAKNSLYLQMSSLKAEDTAVYYCARPAPSAHSYYLDYWGQGTLLTVSS VL: DIQMTQSTSSLSASVGDRVTITCRASQDISNYLNWYQQKPGGAVKLLIYYTSRLHSGLPSRFSGSGSGTDYTLTISSLQQEDIATYYCQQGKTLPFTFASGTKLEIK |
| 594 nM | 0.0491 s⁻¹ | 82800 M⁻¹ s⁻¹ | 7F10-H1K2-IgG4 (antibody, V domains shown, Humanized) VH: EVQLVESGGGLVQPGGSLRLSCATSGFTFSDYYMYWVRQAPGKRLEWVAYISYGGDSTFYPDTVRGRFTISRDNAKNSLYLQMNSLRAEDTAVYYCARPAPSAHSYYLDYWGQGTLLTVSS VL: DIQMTQSPSSLSASVGDRVTITCRASQDISNYLNWYQQKPGGAVKLLIYYTSRLHSGLPSRFSGSGSGTDYTFTISSLQPEDIATYYCQQGKTLPFTFASGTKLEIK |
| 291 nM | 0.0514 s⁻¹ | 177000 M⁻¹ s⁻¹ | 7F10-H1K1-IgG4 (antibody, V domains shown, Humanized) VH: EVQLVESGGGLVQPGGSLRLSCATSGFTFSDYYMYWVRQAPGKRLEWVAYISYGGDSTFYPDTVRGRFTISRDNAKNSLYLQMNSLRAEDTAVYYCARPAPSAHSYYLDYWGQGTLLTVSS VL: DIQMTQSPSSLSASVGDRVTITCRASQDISNYLNWYQQKPGGAVKLLIYYTSRLHSGLPSRFSGSGSGTDFTFTISSLQPEDIATYYCQQGKTLPFTFASGTKLEIK |
| 535 nM | 0.0391 s⁻¹ | 73100 M⁻¹ s⁻¹ | 7F10-H1K3-IgG4 (antibody, V domains shown, Humanized) VH: EVQLVESGGGLVQPGGSLRLSCATSGFTFSDYYMYWVRQAPGKRLEWVAYISYGGDSTFYPDTVRGRFTISRDNAKNSLYLQMNSLRAEDTAVYYCARPAPSAHSYYLDYWGQGTLLTVSS VL: DIQMTQSTSSLSASVGDRVTITCRASQDISNYLNWYQQKPGGAVKLLIYYTSRLHSGLPSRFSGSGSGTDYTLTISSLQQEDIATYYCQQGKTLPFTFASGTKLEIK |
| 138 nM | 0.057 s⁻¹ | 414000 M⁻¹ s⁻¹ | 4H6-H2K2-IgG4 (antibody, V domains shown, Humanized) VH: EVQLQESGPGLVKPSQTLSLTCTVSGDSVSSGYWNWIRKHPGKKLEWIGFISYSGSTYYTPSLKSRVTISRDTSKNQFSLKLSSVTAADTAVYYCARFRRYDDGVDYWGQGTLVTVSS VL: DIQMTQSPSAMSASVGDRVTITCRASHEISGYLSWIQQKPGGTIKRLINAASTLASGVPSRFSGSRSGTEFTLTISSLQPEDFADYYCLQYSSYPWTFGGGTKLEIK |
| 253 nM | 0.0659 s⁻¹ | 260000 M⁻¹ s⁻¹ | 4H6-H2K3-IgG4 (antibody, V domains shown, Humanized) VH: EVQLQESGPGLVKPSQTLSLTCTVSGDSVSSGYWNWIRKHPGKKLEWIGFISYSGSTYYTPSLKSRVTISRDTSKNQFSLKLSSVTAADTAVYYCARFRRYDDGVDYWGQGTLVTVSS VL: DIQMTQSPSAMSASVGDRVTITCRASHEISGYLSWIQQKPGGTIKRLINAASTLASGVPSRFSGSRSGTEYTLTISSLQPEDFADYYCLQYSSYPWTFGGGTKLEIK |
| 94.8 nM | 0.0282 s⁻¹ | 298000 M⁻¹ s⁻¹ | 4H6-H3K4-IgG4 (antibody, V domains shown, Humanized) VH: EVQLQESGPGLVKPSQTLSLTCTVSGDSVSSGYWNWIRKHPGKKLEYMGFISYSGSTYYTPSLKSRITISRDTSKNQFSLKLSSVTAADTAVYFCARFRRYDDGVDYWGQGTLVTVSS VL: DIQMTQSPSAMSASVGDRVTLTCRASHEISGYLSWIQQKPGGTIKRLINAASTLASGVPSRFSGSRSGTEYTLTISSLQPEDFADYYCLQYSSYPWTFGGGTKLEIK |
| 378 nM | 0.0742 s⁻¹ | 196000 M⁻¹ s⁻¹ | 4H6-H2K4-IgG4 (antibody, V domains shown, Humanized) VH: EVQLQESGPGLVKPSQTLSLTCTVSGDSVSSGYWNWIRKHPGKKLEWIGFISYSGSTYYTPSLKSRVTISRDTSKNQFSLKLSSVTAADTAVYYCARFRRYDDGVDYWGQGTLVTVSS VL: DIQMTQSPSAMSASVGDRVTLTCRASHEISGYLSWIQQKPGGTIKRLINAASTLASGVPSRFSGSRSGTEYTLTISSLQPEDFADYYCLQYSSYPWTFGGGTKLEIK |
| 229 nM | 0.0554 s⁻¹ | 242000 M⁻¹ s⁻¹ | 4H6-H1K3-IgG4 (antibody, V domains shown, Humanized) VH: QVQLQESGPGLVKPSQTLSLTCTVSGDSVSSGYWNWIRKHPGKKLEWIGFISYSGSTYYTPSLKSRVTISRDTSKNQFSLKLSSVTAADTAVYYCARFRRYDDGVDYWGQGTLVTVSS VL: DIQMTQSPSAMSASVGDRVTITCRASHEISGYLSWIQQKPGGTIKRLINAASTLASGVPSRFSGSRSGTEYTLTISSLQPEDFADYYCLQYSSYPWTFGGGTKLEIK |
| 447 nM | 0.227 s⁻¹ | 507000 M⁻¹ s⁻¹ | 4H6-H2K1-IgG4 (antibody, V domains shown, Humanized) VH: EVQLQESGPGLVKPSQTLSLTCTVSGDSVSSGYWNWIRKHPGKKLEWIGFISYSGSTYYTPSLKSRVTISRDTSKNQFSLKLSSVTAADTAVYYCARFRRYDDGVDYWGQGTLVTVSS VL: DIQMTQSPSAMSASVGDRVTITCRASHEISGYLSWFQQKPGGVIKRLINAASTLASGVPSRFSGSRSGTEFTLTISSLQPEDFATYYCLQYSSYPWTFGGGTKLEIK |
| 145 nM | 0.0269 s⁻¹ | 185000 M⁻¹ s⁻¹ | 4H6-H4K1-IgG4 (antibody, V domains shown, Humanized) VH: EVQLQESGPGLVKPSQTLSLTCTVSGDSVSSGYWNWIRKFPGKKLEYMGFISYSGSTYYTPSLKSRITISRDTSKNQFSLKLSSVTAADTAVYFCARFRRYDDGVDYWGQGTLVTVSS VL: DIQMTQSPSAMSASVGDRVTITCRASHEISGYLSWFQQKPGGVIKRLINAASTLASGVPSRFSGSRSGTEFTLTISSLQPEDFATYYCLQYSSYPWTFGGGTKLEIK |
| 78.8 nM | 0.0257 s⁻¹ | 327000 M⁻¹ s⁻¹ | 4H6-H4K3-IgG4 (antibody, V domains shown, Humanized) VH: EVQLQESGPGLVKPSQTLSLTCTVSGDSVSSGYWNWIRKFPGKKLEYMGFISYSGSTYYTPSLKSRITISRDTSKNQFSLKLSSVTAADTAVYFCARFRRYDDGVDYWGQGTLVTVSS VL: DIQMTQSPSAMSASVGDRVTITCRASHEISGYLSWIQQKPGGTIKRLINAASTLASGVPSRFSGSRSGTEYTLTISSLQPEDFADYYCLQYSSYPWTFGGGTKLEIK |
| 465 nM | 0.0695 s⁻¹ | 149000 M⁻¹ s⁻¹ | 4H6-H1K4-IgG4 (antibody, V domains shown, Humanized) VH: QVQLQESGPGLVKPSQTLSLTCTVSGDSVSSGYWNWIRKHPGKKLEWIGFISYSGSTYYTPSLKSRVTISRDTSKNQFSLKLSSVTAADTAVYYCARFRRYDDGVDYWGQGTLVTVSS VL: DIQMTQSPSAMSASVGDRVTLTCRASHEISGYLSWIQQKPGGTIKRLINAASTLASGVPSRFSGSRSGTEYTLTISSLQPEDFADYYCLQYSSYPWTFGGGTKLEIK |
| 413 nM | 0.0342 s⁻¹ | 82700 M⁻¹ s⁻¹ | 4H6-H3K1-IgG4 (antibody, V domains shown, Humanized) VH: EVQLQESGPGLVKPSQTLSLTCTVSGDSVSSGYWNWIRKHPGKKLEYMGFISYSGSTYYTPSLKSRITISRDTSKNQFSLKLSSVTAADTAVYFCARFRRYDDGVDYWGQGTLVTVSS VL: DIQMTQSPSAMSASVGDRVTITCRASHEISGYLSWFQQKPGGVIKRLINAASTLASGVPSRFSGSRSGTEFTLTISSLQPEDFATYYCLQYSSYPWTFGGGTKLEIK |
| 91.6 nM | 0.0286 s⁻¹ | 312000 M⁻¹ s⁻¹ | 4H6-H3K3-IgG4 (antibody, V domains shown, Humanized) VH: EVQLQESGPGLVKPSQTLSLTCTVSGDSVSSGYWNWIRKHPGKKLEYMGFISYSGSTYYTPSLKSRITISRDTSKNQFSLKLSSVTAADTAVYFCARFRRYDDGVDYWGQGTLVTVSS VL: DIQMTQSPSAMSASVGDRVTITCRASHEISGYLSWIQQKPGGTIKRLINAASTLASGVPSRFSGSRSGTEYTLTISSLQPEDFADYYCLQYSSYPWTFGGGTKLEIK |
| 88.9 nM | 0.0278 s⁻¹ | 312000 M⁻¹ s⁻¹ | 4H6-H4K4-IgG4 (antibody, V domains shown, Humanized) VH: EVQLQESGPGLVKPSQTLSLTCTVSGDSVSSGYWNWIRKFPGKKLEYMGFISYSGSTYYTPSLKSRITISRDTSKNQFSLKLSSVTAADTAVYFCARFRRYDDGVDYWGQGTLVTVSS VL: DIQMTQSPSAMSASVGDRVTLTCRASHEISGYLSWIQQKPGGTIKRLINAASTLASGVPSRFSGSRSGTEYTLTISSLQPEDFADYYCLQYSSYPWTFGGGTKLEIK |
| 164 nM | 0.0632 s⁻¹ | 386000 M⁻¹ s⁻¹ | 4H6-H1K2-IgG4 (antibody, V domains shown, Humanized) VH: QVQLQESGPGLVKPSQTLSLTCTVSGDSVSSGYWNWIRKHPGKKLEWIGFISYSGSTYYTPSLKSRVTISRDTSKNQFSLKLSSVTAADTAVYYCARFRRYDDGVDYWGQGTLVTVSS VL: DIQMTQSPSAMSASVGDRVTITCRASHEISGYLSWIQQKPGGTIKRLINAASTLASGVPSRFSGSRSGTEFTLTISSLQPEDFADYYCLQYSSYPWTFGGGTKLEIK |
| 7720 nM | 0.167 s⁻¹ | 21700 M⁻¹ s⁻¹ | 4H6-H1K1-IgG4 (antibody, V domains shown, Humanized) VH: QVQLQESGPGLVKPSQTLSLTCTVSGDSVSSGYWNWIRKHPGKKLEWIGFISYSGSTYYTPSLKSRVTISRDTSKNQFSLKLSSVTAADTAVYYCARFRRYDDGVDYWGQGTLVTVSS VL: DIQMTQSPSAMSASVGDRVTITCRASHEISGYLSWFQQKPGGVIKRLINAASTLASGVPSRFSGSRSGTEFTLTISSLQPEDFATYYCLQYSSYPWTFGGGTKLEIK |
